Source: paper PMC8629394, “Anaerobic peroxisomes in Entamoeba histolytica metabolize myo-inositol” (PLoS Pathogens, 2021)
Several values for one entry are separate records, joined by “and”; a condition that tells them apart may be missing. Identical values can stand only once.

What was measured:
purified protein [1] = substrate: NC(=O)C1=CN([C@@H]2O[C@H](COP(=O)(O)OP(=O)(O)OC[C@H]3O[C@@H](n4cnc5c(N)ncnc54)[C@H](O)[C@@H]3O)[C@@H](O)[C@H]2O)C=CC1; assay: purified protein; assay type: biochemical, Entamoeba histolytica; conditions: reverse reaction, keto-2-inositol as presumed co-substrate (concentration not stated); varied: cofactor
purified protein [2] = substrate: NC(=O)c1ccc[n+]([C@@H]2O[C@H](COP(=O)(O)OP(=O)(O)OC[C@H]3O[C@@H](n4cnc5c(N)ncnc54)[C@H](O)[C@@H]3O)[C@@H](O)[C@H]2O)c1; assay: purified protein; assay type: biochemical, Entamoeba histolytica; conditions: 12.5 mM myo-inositol, 10 mM sodium pyrophosphate pH 9, room temperature; pH 9.0; varied: cofactor
purified protein [3] = substrate: NC(=O)c1ccc[n+]([C@@H]2O[C@H](COP(=O)(O)OP(=O)(O)OC[C@H]3O[C@@H](n4cnc5c(N)ncnc54)[C@H](OP(=O)(O)O)[C@@H]3O)[C@@H](O)[C@H]2O)c1; assay: purified protein; assay type: biochemical, Entamoeba histolytica; conditions: 12.5 mM myo-inositol, 10 mM sodium pyrophosphate pH 9, room temperature; pH 9.0; varied: cofactor
purified protein [4] = substrate: O=C1[C@@H](O)[C@H](O)[C@@H](O)[C@H](O)[C@H]1O; assay: purified protein; assay type: biochemical, Entamoeba histolytica; conditions: reverse reaction, NADH as co-substrate (concentration not stated)
purified protein [5] = substrate: O[C@H]1[C@H](O)[C@@H](O)[C@H](O)[C@@H](O)[C@@H]1O; assay: purified protein; assay type: biochemical, Entamoeba histolytica; conditions: 1 mM NAD+, 10 mM sodium pyrophosphate pH 9, room temperature; pH 9.0
purified protein [6] = substrate: O[C@H]1[C@H](O)[C@@H](O)[C@H](O)[C@@H](O)[C@H]1O; assay: purified protein; assay type: biochemical, Entamoeba histolytica; conditions: 1 mM NAD+, 10 mM sodium pyrophosphate pH 9, room temperature; pH 9.0
[7] = molecular target: the molecule itself; assay: SEC-MALS; enzymatically active myo-IDH, 0.5-2 mg/ml, Agilent Biosec-3 column, 0.3 ml/min, 50 mM phosphate buffer pH 7.0, 300 mM NaCl, 15°C; miniDAWN light scattering, refractive index and UV detectors

B1: recombinant 6xHis-tagged E. histolytica myo-inositol dehydrogenase (myo-IDH) (enzyme, Entamoeba histolytica, UniProt C4LVW1 1-316, looked up)
chain: MQSNKVRICLCGTGRLGSFRASLFIESQDIELVGVVEPFRVCQSVLDRPNIKIFKTVEEINIPIDGIWISTPTKFHLQTIKLASKKVKHIYCEKPIASTPEEVKEAYETCRKNGVSLHCGWMRRRDPGYQSIKEYLVSHNVSIQRAEFHSFDWPLVPPEFLKTLGNIFTDLMCHDFNLIMYYMNNTLPKYVTAVGIDGGAGVWDSATASLEYPNNVVLTIIATRNGNKVYDNSLTVLTSDSHILECGKEPENLTETFMKRHEKNFKKELPFFANIIRNNGTSGDVLSCVNTSILIQAATRSATLGGKRIPLVIPKL
notes: myo-inositol dehydrogenase (myo-IDH, EC 1.1.1.18) of Entamoeba histolytica, gene EHI_125740; theoretical weight 36.4 kDa including the 6x-His tag; the natural protein ends in a PTS1 tripeptide; also called putative inositol dehydrogenase; EHI_125740; source: E. coli BL21 Rosetta, pET42b, purified (Ni-NTA agarose, native conditions, imidazole)
Which Km (purified protein [1]) does the source give for B1 here?
The Km was 9 ± 0 µM.

And the Vmax (purified protein [1])?
The Vmax was 1.64 µmol/min/mg.

And the Km (purified protein [2])?
Its Km is 38 ± 4 µM.

And the Vmax (purified protein [2])?
Its Vmax is 1 µmol/min/mg.

And the Km (purified protein [3])?
The Km was 1201 ± 532 µM.

What about the Vmax (purified protein [3]) of the same protein?
The Vmax was 0.826 µmol/min/mg.

What about the Km (purified protein [4]) of the same protein?
The Km was 322 ± 34 µM.

And the Vmax (purified protein [4])?
Its Vmax is 4.41 µmol/min/mg.

And the Km (purified protein [5])?
The Km was 229 ± 20 µM.

And the Vmax (purified protein [5])?
Its Vmax is 6.2 µmol/min/mg.

What about the Km (purified protein [6]) of the same protein?
Its Km is 44 ± 4 µM.

And the Vmax (purified protein [6])?
Its Vmax is 5.45 µmol/min/mg.

What about the “stoichiometry N” value [7] of the same protein?
The value was 2 and 3.
